Assay results published in patent US9574016B2, “Complex of bi-specific antibody and digoxigenin conjugated to a therapeutic or diagnostic agent” (Hoffmann-La Roche Inc., priority 2009, dated 2017).
Several values for one entry are separate records, joined by “and”; a condition that tells them apart may be missing. Equal entries are not always repeated. Non-standard residues stand in square brackets, D forms with d. Residues, ends and D or L forms follow the SMILES beside them. No end group written: not given here. PEG3 = NCCOCCOCCOCCC(=O)O

Tests used:
[1] = test system: H322M (low surface Her2) and KPL4 (high surface Her2) cells; assay: CytoTox-Glo assay of DIG-peptide-<Her2>-<Dig> complexes; format: cell-based, human; conditions: 48 hours
Source text: To analyze whether the <Her2>-<Dig>-Dig-Peptide complexes, and <IGF1R>-<Dig>-Dig-Peptide complexes mediate specific targeting of their payload towards antigen expressing cells, we made use of the fact that the FALLv1 and Fam5b peptides are cytotoxic. […] To measure the number of dead cells, the CytoTox-Glo assay (Promega Madison, Wis.) was used. To analyze the specificity of the targeting, two cell lines were used: H322M which have low levels of surface Her2 and KPL4 which have high levels of surface Her2.
For these assays, H322M cells were seeded at a density of 15.000 cells per well in 96 well plates. The cells were incubated for 24 hours at 37° C., 5% CO2 and 85% humidity in RPMI with 10% FCS, Na+Pyrovate, L-Glutamine and NEAA mix. KPL4 cells were seeded at a density of 7.000 cells per well in 96 well plates. The cells were incubated for 24 hours at 37° C., 5% CO2 and 85% humidity in RPMI with 10% FCS, and L-Glutamine. […] The cells were incubated for further 48 hours. After this period, the cells were treated with the CytoTox-Glo-assay reagent according to the manufacturers instructions. In brief, this assay detects dead cells via the presence of a protease in the medium that cleaves a flurogenic peptide in the reagent. The luminescence of this assay therefore represents dead cells. The 96 well plates were then analyzed in a InfiniteF200 luminescence reader (Tecan Austria, Gröding).

[2] = Excitation and emission spectra; format: physicochemical
Source text: To evaluate whether digoxygenation of Cy5 alters its fluorescence features, we compared the excitation and emission spectra of Cy5 and compared it with the spectra of the newly generated Dig-Cy5 and with Dig-Cy5 within a complex with bispecific antibodies. […] We conclude that Dig-Cy5 and —complexes can be applied for antibody-mediated targeting and in vivo imaging.

[3] = test system: CD22 positive Raji and Ramos cells; assay: FACS analysis with <CD22>-<DIG> and DIG-Cy5; format: cell-based; conditions: DIG-Cy5 66.4 nM
Protocol: For these analyses we used CD22 positive Raji and Ramos cells and the bispecific <CD22>-<DIG> antibody. 3×10^5 cells per well of a 96-well-plate were incubated with 5 ng/ml of the <CD22>-<DIG> antibody in FACS buffer (PBS containing 5% FCS). After washing the cells were incubated with DIG-Cy5 in a final concentration of 66.4 nM. After another washing step cells were analysed with the FACS canto II (BD Biosciences).

[4] = test system: IGF1R expressing tumors (H322M cells); assay: NIRF tumor imaging with Dig-Cy5 complexes, H322M xenograft; format: in vivo, mice; conditions: 30 min, i.v.
Protocol: To analyze if the specific antigen binding functionality of the antibody-complexes can be utilized to specifically deliver imaging reagents to tumor cells, we performed Near Infrared Fluorescence Imaging Studies (NIRF) in vivo. […] These xenografts were either expressing the antigen Her2 (KPL4 cells) or the antigen IGF1R (H322M cells). Subsequently NIRF imaging was performed by using the Maestro system from CRI. Animals were placed in a measuring chamber and the fluorescence was measured over a defined spectral wavelength array, depending on the dye. Spectral information of each pixel of the obtained image was analyzed by a special software which allows to separate different pre-defined spectra, e.g. autoflourescence and the signal of the dye. Theses separated specific signals were quantified by the Maestro software in order to compare different samples.

[5] = target: siRNA-DIG (Eg5-siRNA-DIG); assay: SPR (Biacore) binding to mono-digoxygenated siRNA; conditions: 25° C.
Protocol: (§2) For that, binding properties of the recombinant <Dig> derivatives were analyzed by surface plasmon resonance (SPR) technology using a Biacore T100 or Biacore 3000 instrument (GE Healthcare Bio-Sciences AB, Uppsala). […] It allows a continuous real-time monitoring of ligand/analyte bindings and thus the determination of association rate constants (ka), dissociation rate constants (kd), and equilibrium constants (KD) in various assay settings. SPR-technology is based on the measurement of the refractive index close to the surface of a gold coated biosensor chip. Changes in the refractive index indicate mass changes on the surface caused by the interaction of immobilized ligand with analyte injected in solution. If molecules bind to immobilized ligand on the surface the mass increases, in case of dissociation the mass decreases. To perform the binding studies capturing anti-human IgG antibody was immobilized on the surface of a CM5 biosensor chip using amine-coupling chemistry. […]
(§3) Anti-mouse IgG antibody was immobilized on the surface of a CM5 biosensor chip in the same fashion as described above. […] The samples to be analyzed were diluted in HBS-P (10 mM HEPES, pH 7.4, 150 mM NaCl, 0.005% Surfactant P20) and injected at a flow rate of 5 μl/min. […] Signals were detected at a rate of one signal per second.
(§4) The samples to be analyzed were diluted in HBS-P and injected at a flow rate of 5 μl/min. […]

[6] = target: siRNA-(2x)DIG (Eg5-siRNA-(2×)DIG); assay: SPR (Biacore) binding to bi-digoxygenated siRNA; conditions: 25° C.
Protocol: as §2, §3, §4

[7] = test system: DIG-Myoglobin; assay: SPR study, binding to DIG-myoglobin
Protocol: (§1) For that, binding properties of the recombinant <Dig> derivatives were analyzed by surface plasmon resonance (SPR) technology using a Biacore T100 or Biacore 3000 instrument (GE Healthcare Bio-Sciences AB, Uppsala). This system is well established for the study of molecule interactions. It allows a continuous real-time monitoring of ligand/analyte bindings and thus the determination of association rate constants (ka), dissociation rate constants (kd), and equilibrium constants (KD) in various assay settings. SPR-technology is based on the measurement of the refractive index close to the surface of a gold coated biosensor chip. Changes in the refractive index indicate mass changes on the surface caused by the interaction of immobilized ligand with analyte injected in solution. If molecules bind to immobilized ligand on the surface the mass increases, in case of dissociation the mass decreases. To perform the binding studies capturing anti-human IgG antibody was immobilized on the surface of a CM5 biosensor chip using amine-coupling chemistry. Flow cells were activated with a 1:1 mixture of 0.1 M N-hydroxysuccinimide and 0.1 M 3-(N,N-dimethylamino)propyl-N-ethylcarbodiimide at a flow rate of 5 μl/min. […] A reference control flow cell was treated in the same way but with vehicle buffers only instead of the capturing antibody. Surfaces were blocked with an injection of 1 M ethanolamine/HCl pH 8.5. To compare the binding of the humanized protein variants with that of the murine <Dig> IgG from the original hybridoma 19-11, capturing anti-mouse IgG antibody was immobilized on the surface of a CM5 biosensor chip in the same fashion as described above for the anti-human IgG antibody. To evaluate the functionality of the recombinant <Dig> derivatives, binding of the recombinant hu<Dig> modules, incl. […]

[8] = test system: DIG-siRNA2349; assay: SPR study, binding to DIG-siRNA2349; conditions: analyte DIG-siRNA2349; listed as <DIG>M-19-11
Protocol: as §1, with “antibody.” for “antibody. Surfaces were blocked with an injection of 1 M ethanolamine/HCl pH 8.5. To compare the binding of the humanized protein variants with that of the murine <Dig> IgG from the original hybridoma 19-11, capturing anti-mouse IgG antibody was immobilized on the surface of a CM5 biosensor chip in the same fashion as described above for the anti-human IgG antibody. To evaluate the functionality of the recombinant <Dig> derivatives, binding of the recombinant hu<Dig> modules, incl.”

[9] = analyte DIG-Myoglobin, listed as <DIG>M-19-11

Molecule: CC[C@H](C)[C@H](NC(=O)[C@H](CCCNC(=N)N)NC(=O)[C@H](Cc1c[nH]cn1)NC(=O)[C@@H](NC(=O)[C@H](CCCCN)NC(=O)[C@H](CCCCN)NC(=O)[C@H](Cc1ccccc1)NC(=O)[C@H](CC(C)C)NC(=O)[C@@H](NC(=O)[C@H](CCCCN)NC(=O)[C@H](CC(C)C)NC(=O)CNC(=O)[C@H](C)NC(=O)CNC(=O)[C@H](CC(C)C)NC(=O)[C@H](CCC(N)=O)NC(=O)[C@H](CCC(N)=O)NC(=O)[C@H](Cc1ccc(O)cc1)NC(=O)[C@H](CCCNC(=N)N)NC(=O)[C@H](Cc1c[nH]cn1)NC(=O)[C@@H](N)CCC(N)=O)C(C)C)[C@@H](C)O)C(=O)N[C@@H](CC(C)C)C(=O)N[C@@H](CCCNC(=N)N)C(=O)N[C@@H](CCCNC(=N)N)C(=O)N[C@@H](CC(C)C)C(=O)N[C@@H](Cc1ccccc1)C(=O)N[C@@H](CC(N)=O)C(=O)N[C@@H](CC(C)C)C(=O)N[C@@H](C)C(=O)N[C@@H](CCCCN)C(=O)O [Fam5b] (H-QHRYQQLGAGLKVLFKKTHRILRRLFNLAK-OH)
- cytotoxicity of the <Her2>-<Dig> complex towards antigen expressing target cells compared to non-complexed peptide [1]: higher

Molecule: CC[C@H](C)[C@H](NC(=O)[C@H](CCCCN)NC(=O)[C@H](CCC(=O)O)NC(=O)[C@H](CCCCN)NC(=O)[C@H](CO)NC(=O)[C@H](CCCCN)NC(=O)[C@H](CCCNC(=N)N)NC(=O)[C@H](Cc1ccccc1)NC(=O)[C@H](Cc1ccccc1)NC(=O)[C@H](CC(=O)O)NC(=O)CNC(=O)[C@H](CC(C)C)NC(=O)[C@H](CC(C)C)NC(=O)[C@H](C)NC(=O)[C@@H](N)Cc1ccccc1)C(=O)NCC(=O)N[C@@H](CCCCN)C(=O)N[C@@H](CCC(=O)O)C(=O)N[C@@H](Cc1ccccc1)C(=O)N[C@@H](CCCCN)C(=O)N[C@@H](CCCNC(=N)N)C(=O)N[C@H](C(=O)N[C@H](C(=O)N[C@@H](CCC(N)=O)C(=O)N[C@@H](CCCNC(=N)N)C(=O)N[C@H](C(=O)N[C@@H](CCCCN)C(=O)N[C@@H](CC(=O)O)C(=O)N[C@@H](Cc1ccccc1)C(=O)N[C@@H](CC(C)C)C(=O)N[C@@H](CCCNC(=N)N)C(=O)N[C@@H](CC(N)=O)C(=O)N[C@@H](CC(C)C)C(=O)N[C@H](C(=O)N1CCC[C@H]1C(=O)N[C@@H](CCCNC(=N)N)C(=O)N[C@H](C(=O)N[C@@H](CCC(=O)O)C(=O)N[C@@H](CO)C(N)=O)[C@@H](C)O)C(C)C)[C@@H](C)CC)C(C)C)[C@@H](C)CC [FALLv1]
- cytotoxicity of the <Her2>-<Dig> complex towards antigen expressing target cells compared to non-complexed peptide [1]: higher

Molecule: Cy5 [reference compound]
- Emission wavelength (max.) [2]: 670 nm

Molecule: CC[C@H](C)[C@H](NC(=O)[C@H](CCCCN)NC(=O)[C@H](CCC(=O)O)NC(=O)[C@H](CCCCN)NC(=O)[C@H](CO)NC(=O)[C@H](CCCCN)NC(=O)[C@H](CCCNC(=N)N)NC(=O)[C@H](Cc1ccccc1)NC(=O)[C@H](Cc1ccccc1)NC(=O)[C@H](CC(=O)O)NC(=O)CNC(=O)[C@H](CC(C)C)NC(=O)[C@H](CC(C)C)NC(=O)[C@H](C)NC(=O)[C@H](Cc1ccccc1)NC(=O)[C@@H](N)CSC1CC(=O)N(CCNC(=O)CO[C@H]2CC[C@@]3(C)[C@H](CC[C@@H]4[C@@H]3C[C@@H](O)[C@]3(C)[C@@H](C5=CC(=O)OC5)CC[C@]43O)C2)C1=O)C(=O)NCC(=O)N[C@@H](CCCCN)C(=O)N[C@@H](CCC(=O)O)C(=O)N[C@@H](Cc1ccccc1)C(=O)N[C@@H](CCCCN)C(=O)N[C@@H](CCCNC(=N)N)C(=O)N[C@H](C(=O)N[C@H](C(=O)N[C@@H](CCC(N)=O)C(=O)N[C@@H](CCCNC(=N)N)C(=O)N[C@H](C(=O)N[C@@H](CCCCN)C(=O)N[C@@H](CC(=O)O)C(=O)N[C@@H](Cc1ccccc1)C(=O)N[C@@H](CC(C)C)C(=O)N[C@@H](CCCNC(=N)N)C(=O)N[C@@H](CC(N)=O)C(=O)N[C@@H](CC(C)C)C(=O)N[C@H](C(=O)N1CCC[C@H]1C(=O)N[C@@H](CCCNC(=N)N)C(=O)N[C@H](C(=O)N[C@@H](CCC(=O)O)C(=O)N[C@@H](CO)C(N)=O)[C@@H](C)O)C(C)C)[C@@H](C)CC)C(C)C)[C@@H](C)CC (stereo partly drawn) [Dig-FALLv1]
- cytotoxicity when delivered by the <Her2>-<Dig> bispecific antibody, H322M compared to KPL4 [1]: more toxic to cells expressing higher levels of surface antigen

Molecule: DIG-Fam5b: digoxigenin conjugate of Fam5b with TEG-spacer and amino-terminal cystein (C[PEG3]QHRYQQLGAGLKVLFKKTHRILRRLFNLAK; also: digoxigenin conjugate, attachment site not given here)
- cytotoxicity when delivered by the <Her2>-<Dig> bispecific antibody, H322M compared to KPL4 [1]: correlates with the levels of surface antigen

Molecule: CCN1c2ccc(S(=O)(=O)O)cc2C(C)(C)C1/C=C/C=C/C=C1\N(CCCCCC(=O)NCCNC(=O)CO[C@H]2CC[C@@]3(C)[C@H](CC[C@@H]4[C@@H]3C[C@@H](O)[C@]3(C)[C@@H](C5=CC(=O)OC5)CC[C@]43O)C2)c2ccc(S(=O)(=O)O)cc2C1(C)C (stereo partly drawn) [Dig-Cy5]
- Emission wavelength (max.) [2]: 670 nm
- binding to Raji or Ramos cells (FACS) [3]: hardly any binding
- tumor visualization by NIRF [4]: no tumor specific fluorescence

B1: murine DIG-IgG 19-11: murine <Dig> IgG1 kappa from mouse hybridoma clone 19-11; VL Seq. ID. NO. 1, VH Seq. ID. NO. 2 (antibody, listed as Mus musculus, V domains shown)
VH: MNFVLSLIFLALILKGVQCEVQLVESGGGLVKPGGSLKLSCAVSGFTFSDYAMSWIRQTPENRLEWVASINIGATYAYYPDSVKGRFTISRDNAKNTLFLQMSSLGSEDTAMYYCARPGSPYEYDKAYYSMAYWGPGTSVTVSS
VL: MSSAQFLGLLLLCFQGTRCDVQMTQSTSSLSASLGDRVTISCRASQDIKNYLNWYQQKPGGTVKLLIYYSSTLLSGVPSRFSGRGSGTDFSLTITNLEREDIATYFCQQSITLPPTFGGGTKLEIK
notes: murine <Dig> IgG1 kappa from mouse hybridoma clone 19-11; ID; NO
- Kd [5]: 0.269 nM
- Kd [6]: 0.017 nM
- affinity to DIG-myoglobin relative to <DIG>-hu2 and disulfide-stabilized <DIG> scFv [7]: about a hundred fold better
- ka [7, 9]: 1.75e+06 M⁻¹ s⁻¹ and 2.28e+06 M⁻¹ s⁻¹
- kd [7, 9]: 0.000676 s⁻¹ and 0.000675 s⁻¹
- ka [8]: 3.27e+06 M⁻¹ s⁻¹ and 2.26e+06 M⁻¹ s⁻¹
- kd [8]: 0.000903 s⁻¹ and 0.000838 s⁻¹
